This note sets out measurements from ChEMBL document CHEMBL1250451, “Mechanistic insights into a Ca2+-dependent family of alpha-mannosidases in a human gut symbiont” (Nat Chem Biol, 2010).

Broadly, the Km is the concentration of substrate that gives half-maximal velocity. As a reminder, the kcat is the number of substrate molecules converted per active site and unit of time at saturation. As a reminder, the kcat/Km is the second-order rate constant that governs catalysis at low substrate concentration.

What all share (assay type): protein assay
Substrate in data set [1]: O=[N+]([O-])c1ccc(O[C@H]2O[C@H](CO)[C@@H](O)[C@H](O)[C@@H]2O)cc1
Put plainly: (§1) Activity of Bacteroides thetaiotaomicron GH92 alpha-mannosidase 3990 N601A mutant assessed as as mannose release after 16 hrs by HPLC relative to wild type enzyme.

Substrate in data set [2]: OC[C@H]1O[C@H](O[C@H]2[C@@H](O)[C@H](O)[C@@H](CO)O[C@@H]2O)[C@@H](O)[C@@H](O)[C@@H]1O
The description is as §1.

Substrate in data set [3]: O=[N+]([O-])c1ccc(O[C@H]2O[C@H](CO)[C@@H](O)[C@H](O)[C@@H]2O)c([N+](=O)[O-])c1
Nature of the data set: (§2) Ratio of Kcat to Km for Bacteroides thetaiotaomicron GH92 alpha-mannosidase 3990 N601A mutant assessed as as mannose release after 16 hrs by HPLC relative to wild type enzyme.

Substrate in data set [4]: O=[N+]([O-])c1ccc(O[C@H]2O[C@H](CO)[C@@H](O)[C@H](O)[C@@H]2O)cc1
The description is as §2.

Substrate in data set [5]: OC[C@H]1O[C@H](O[C@H]2[C@@H](O)[C@H](O)[C@@H](CO)O[C@@H]2O)[C@@H](O)[C@@H](O)[C@@H]1O
The description is as §2.

Substrate in data set [6]: O=[N+]([O-])c1ccc(O[C@H]2O[C@H](CO)[C@@H](O)[C@H](O)[C@@H]2O)cc1
Put plainly: (§3) Activity of Bacteroides thetaiotaomicron GH92 alpha-mannosidase 3990 E533A mutant assessed as as mannose release after 16 hrs by HPLC relative to wild type enzyme.

Substrate in data set [7]: OC[C@H]1O[C@H](O[C@H]2[C@@H](O)[C@H](O)[C@@H](CO)O[C@@H]2O)[C@@H](O)[C@@H](O)[C@@H]1O
The description is as §3.

Substrate in data set [8]: O=[N+]([O-])c1ccc(O[C@H]2O[C@H](CO)[C@@H](O)[C@H](O)[C@@H]2O)c([N+](=O)[O-])c1
Put plainly: (§4) Ratio of Kcat to Km for Bacteroides thetaiotaomicron GH92 alpha-mannosidase 3990 E533A mutant assessed as as mannose release after 16 hrs by HPLC relative to wild type enzyme.

Substrate in data set [9]: O=[N+]([O-])c1ccc(O[C@H]2O[C@H](CO)[C@@H](O)[C@H](O)[C@@H]2O)cc1
The description is as §4.

Substrate in data set [10]: OC[C@H]1O[C@H](O[C@H]2[C@@H](O)[C@H](O)[C@@H](CO)O[C@@H]2O)[C@@H](O)[C@@H](O)[C@@H]1O
Described as §4.

B1: Alpha-1,2-mannosidase (BT_3990) (Bacteroides thetaiotaomicron), Q8A0N1 N601A (protein)
chain: MKRLLLIACILNCTLLSQAKDWTQYVNPLMGSQSTFELSTGNTYPAIARPWGMNFWTPQTGKMGDGWQYTYTANKIRGFKQTHQPSPWINDYGQFSIMPIVGQPVFDEEKRASWFAHKGEVATPYYYKVYLAEHDIVTEMTPTERAVLFRFTFPENDHSYVVVDAFDKGSYIKIIPEENKIIGYTTRNSGGVPENFKNYFIIEFDKPFTYKATVENGNLQENVAEQTTDHAGAIIGFKTRKGEQVNARIASSFISFEQAAANMNELGKDNIEQLAQKGKDAWNQVLGKIEVEGGNLDQYRTFYSCLYRSLLFPRKFYELDANGQPIHYSPYNGQVLPGYMFTDTGFWDTFRCLFPLLNLMYPSVNKEMQEGLINTYLESGFFPEWASPGHRGCMVGNNSASILVDAYMKGVKVDDIKTLYEGLIHGTENVHPEVSSTGRLGYEYYNKLGYVPYDVKINENAARTLEYAYDDWCIYRLAKELKRPKKEISLFAKRAMNYKNLFDKESKLMRGRNEDGTFQSPFSPLKWGDAFTEGNSWHYTWSVFHDPQGLIDLMGGKEMFVTMMDSVFAVPPIFDDSYYGQVIHEIREMTVMNMGNYAHGAQPIQHMIYLYDYAGQPWKAQYWLRQVMDRMYTPGPDGYCGDEDNGQTSAWYVFSALGFYPVCPGTDEYVMGTPLFKKATLHFENGNSLVIDAPNNSTENFYIDSMSFNGADHTKNYLRHEDLFKGGTIKVDMSNRPNLNRGTKEEDMPYSFSKE
For the protein B1, the Km worked out at 9.7 mM in [1] and 3.3 mM in data set [2]. The kcat was 0.00055 s⁻¹ in [1] and 0.85 s⁻¹ in data set [2]. Moreover, the kcat/Km in data set [3] came out at 6.17 M⁻¹ s⁻¹; in [4], 0.05 M⁻¹ s⁻¹; in data set [5], 250 M⁻¹ s⁻¹.

B2: Alpha-1,2-mannosidase (BT_3990) (Bacteroides thetaiotaomicron), Q8A0N1 E533A (protein)
chain: MKRLLLIACILNCTLLSQAKDWTQYVNPLMGSQSTFELSTGNTYPAIARPWGMNFWTPQTGKMGDGWQYTYTANKIRGFKQTHQPSPWINDYGQFSIMPIVGQPVFDEEKRASWFAHKGEVATPYYYKVYLAEHDIVTEMTPTERAVLFRFTFPENDHSYVVVDAFDKGSYIKIIPEENKIIGYTTRNSGGVPENFKNYFIIEFDKPFTYKATVENGNLQENVAEQTTDHAGAIIGFKTRKGEQVNARIASSFISFEQAAANMNELGKDNIEQLAQKGKDAWNQVLGKIEVEGGNLDQYRTFYSCLYRSLLFPRKFYELDANGQPIHYSPYNGQVLPGYMFTDTGFWDTFRCLFPLLNLMYPSVNKEMQEGLINTYLESGFFPEWASPGHRGCMVGNNSASILVDAYMKGVKVDDIKTLYEGLIHGTENVHPEVSSTGRLGYEYYNKLGYVPYDVKINENAARTLEYAYDDWCIYRLAKELKRPKKEISLFAKRAMNYKNLFDKESKLMRGRNEDGTFQSPFSPLKWGDAFTAGNSWHYTWSVFHDPQGLIDLMGGKEMFVTMMDSVFAVPPIFDDSYYGQVIHEIREMTVMNMGNYAHGNQPIQHMIYLYDYAGQPWKAQYWLRQVMDRMYTPGPDGYCGDEDNGQTSAWYVFSALGFYPVCPGTDEYVMGTPLFKKATLHFENGNSLVIDAPNNSTENFYIDSMSFNGADHTKNYLRHEDLFKGGTIKVDMSNRPNLNRGTKEEDMPYSFSKE
Consider B2, for which the Km is 9.3 mM in data set [6] and 1.4 mM in [7]. Moreover, the values for the turnover number (kcat) in data set [6] and in data set [7] were 0.00333 s⁻¹ and 0.00433 s⁻¹, respectively. The kcat/Km in [8] stood at 6000 M⁻¹ s⁻¹; in [9], 0.35 M⁻¹ s⁻¹; in [10] it was 3 M⁻¹ s⁻¹.
